Results as given in paper PMC11937480 (Communications Biology, 2025).

Molecular target: T1, HA-ZNF449 (UniProt Q6P9G9 1-518)
T1 sequence (looked up): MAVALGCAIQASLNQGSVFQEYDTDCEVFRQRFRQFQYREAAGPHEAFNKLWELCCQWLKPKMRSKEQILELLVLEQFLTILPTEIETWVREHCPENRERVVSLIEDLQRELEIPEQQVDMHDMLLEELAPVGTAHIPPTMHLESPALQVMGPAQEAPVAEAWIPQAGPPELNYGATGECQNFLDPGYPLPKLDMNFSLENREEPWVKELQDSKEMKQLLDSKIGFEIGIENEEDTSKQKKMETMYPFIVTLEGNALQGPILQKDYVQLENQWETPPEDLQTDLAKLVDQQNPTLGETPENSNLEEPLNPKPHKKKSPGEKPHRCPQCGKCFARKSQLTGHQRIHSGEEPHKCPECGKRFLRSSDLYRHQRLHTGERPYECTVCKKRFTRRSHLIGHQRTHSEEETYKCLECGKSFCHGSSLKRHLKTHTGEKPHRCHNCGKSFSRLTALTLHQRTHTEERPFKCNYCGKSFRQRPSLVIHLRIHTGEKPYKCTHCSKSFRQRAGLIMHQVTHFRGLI
Experiment: pull-down

B1: GST-fused PTOV1 (125–283 aa) truncation (domain or fragment, UniProt Q86YD1 125-283, looked up)
chain: VNQGENLETDQWPQKLIMQLIPQQLLTTLGPLFRNSQLAQFHFTNRDCDSLKGLCRIMGNGFAGCMLFPHISPCEVRVLMLLYSSKKKIFMGLIPYDQSGFVSAIRQVITTRKQAVGPGGVNSGPVQIVNNKFLAWSGVMEWQEPRPEPNSRSKRWLPS
B1: binds.
